Test results published in US20140193431A1 (KOREA RESEARCH INSTITUTE OF BIOSCIENCE AND BIOTECHNOLOGY, published 2014).

Tests used:
[1] = molecular target: T1, dog Met receptor on MDCK cells (dog, UniProt Q75ZY9 25-1382); assay: FACS on MDCK cells, Alexa Fluor 488 anti-human IgG
T1 construct: whole, on cells; also called Met receptor of dog kidney MDCK (Madin-Darby Canine Kidney) cells
Description: Each of Hep3B, HeLa, A549 and HepG2, known to readily express the Met receptor, MCF7 cells known to not readily express the Met receptor, and dog kidney MDCK (Madin-Darby Canine Kidney) cells was prepared, washed twice with PBS, detached by treatment with trypsin, washed again with PBS, and then suspended in PBS (PBA buffer) containing 1% BSA protein. Then, the cells were treated with the purified with the purified B7 antibody at 1:100 at 4° C., after which the cells were washed with PBA buffer and precipitated by centrifugation at 1200 rpm for 3 minutes, and the washing and precipitation process was repeated three times. […] The cells were washed in the same manner as described above and subjected to FACS analysis (BD Cantoll Flow Cytometer) (FIG. 6). Herein, human IgG (hIgG) was used as the internal standard. FIG. 6 is a graphic diagram showing the results of FACS analysis performed to examine whether the B7 antibody did bind to Hep3B, HeLa, A549, HepG2, MCF7 and dog kidney MDCK cells.

[2] = molecular target: c-Met (ligand of the SPR analysis, form not stated) (UniProt P08581); assay: SPR (ProteOn XPR36), B7 at 2.5 to 80 nM as analyte, Langmuir 1:1 fit, grouped
[3] = molecular target: c-Met (ligand of the SPR analysis, form not stated) (UniProt P08581); assay: SPR (ProteOn XPR36), B7 antibody flowed at 2.5-80 nM, Langmuir 1:1 model; immobilised protein not named

T1 sequence (Q75ZY9 25-1382): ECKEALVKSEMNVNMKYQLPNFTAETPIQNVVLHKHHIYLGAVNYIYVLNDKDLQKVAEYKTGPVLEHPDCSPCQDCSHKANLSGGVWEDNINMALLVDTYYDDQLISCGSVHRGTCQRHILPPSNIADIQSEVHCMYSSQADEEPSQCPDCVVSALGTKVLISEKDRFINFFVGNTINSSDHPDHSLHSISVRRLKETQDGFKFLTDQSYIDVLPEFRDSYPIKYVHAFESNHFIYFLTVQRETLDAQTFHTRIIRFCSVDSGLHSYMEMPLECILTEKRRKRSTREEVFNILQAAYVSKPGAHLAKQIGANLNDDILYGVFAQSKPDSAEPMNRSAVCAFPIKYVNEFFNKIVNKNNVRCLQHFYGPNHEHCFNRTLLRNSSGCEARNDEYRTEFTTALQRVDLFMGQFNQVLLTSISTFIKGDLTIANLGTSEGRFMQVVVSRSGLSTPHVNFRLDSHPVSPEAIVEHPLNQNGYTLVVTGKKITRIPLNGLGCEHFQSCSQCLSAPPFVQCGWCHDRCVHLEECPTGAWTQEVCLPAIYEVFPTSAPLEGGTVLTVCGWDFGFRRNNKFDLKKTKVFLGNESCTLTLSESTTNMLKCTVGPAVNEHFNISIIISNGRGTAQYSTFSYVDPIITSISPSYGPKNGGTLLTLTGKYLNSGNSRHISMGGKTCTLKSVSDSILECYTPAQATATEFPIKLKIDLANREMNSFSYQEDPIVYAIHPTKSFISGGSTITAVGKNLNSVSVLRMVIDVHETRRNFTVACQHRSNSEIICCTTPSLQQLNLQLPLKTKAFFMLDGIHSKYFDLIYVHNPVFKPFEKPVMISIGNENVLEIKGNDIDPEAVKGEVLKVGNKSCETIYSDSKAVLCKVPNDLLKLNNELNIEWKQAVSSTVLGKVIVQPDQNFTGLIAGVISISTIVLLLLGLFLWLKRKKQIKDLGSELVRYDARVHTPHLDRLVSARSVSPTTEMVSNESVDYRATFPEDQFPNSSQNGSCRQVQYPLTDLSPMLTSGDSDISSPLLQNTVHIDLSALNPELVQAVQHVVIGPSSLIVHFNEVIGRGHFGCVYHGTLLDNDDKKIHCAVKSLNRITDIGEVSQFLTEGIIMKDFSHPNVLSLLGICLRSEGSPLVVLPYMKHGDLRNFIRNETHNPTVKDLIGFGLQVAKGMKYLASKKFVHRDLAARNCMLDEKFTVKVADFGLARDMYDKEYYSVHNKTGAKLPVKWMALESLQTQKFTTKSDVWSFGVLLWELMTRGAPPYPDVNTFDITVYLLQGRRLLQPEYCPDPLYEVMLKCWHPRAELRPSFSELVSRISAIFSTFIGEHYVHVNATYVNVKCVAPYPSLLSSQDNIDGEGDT

B1: B7 antibody (human anti-c-Met antibody, whole IgG) (antibody, V domains shown)
VH: QVQLQEWGAGLLKPSETLSLTCAVSGGSLSGHYWSWVRLPPGKGLEWIGEISHSGNTNYNSSLKSRASISIDTSKNEYSLNLKSVTAVDTAVYYCARFYGDYPSSYGMDVWGQGTTVTVSS
VL: QSALTQPASVSGSPGQSITISCTGTISDIGTYDFVSWYQHKPGKAPKLLIFDVNNRPSGVSSRFSGSKSDNTASLSISGFQAEDEADYYCSSYTDNRGLVLFGGGTKLTVLR
notes: Whole IgG made by cloning the B7 phage variable regions into pNATABH/pNATABL vectors and expressing them in 293E cells; also called human antibody B7; C-Met B7 antibody
- binding result [1]: no binding (tested: 1:100)
- kon [2]: 73000 M⁻¹ s⁻¹
- Kd [3]: 3.3 nM
